Experimental data from US20030186841A1.

Tests used:
Assay in all cases: cell-based or functional assay
Cf2-PBD-VP64 (human) = Cf2-PBD-VP64 (human) (UniProt P06401)
ER-VP64 (mouse) = ER-VP64 (mouse) (UniProt P19785)
ER-KRAB (mouse; human) = ER-KRAB (mouse; human) (UniProt P19785)
Sequence of ER-KRAB (mouse; human) (P19785 other isoform, or with tags, fused parts or gaps): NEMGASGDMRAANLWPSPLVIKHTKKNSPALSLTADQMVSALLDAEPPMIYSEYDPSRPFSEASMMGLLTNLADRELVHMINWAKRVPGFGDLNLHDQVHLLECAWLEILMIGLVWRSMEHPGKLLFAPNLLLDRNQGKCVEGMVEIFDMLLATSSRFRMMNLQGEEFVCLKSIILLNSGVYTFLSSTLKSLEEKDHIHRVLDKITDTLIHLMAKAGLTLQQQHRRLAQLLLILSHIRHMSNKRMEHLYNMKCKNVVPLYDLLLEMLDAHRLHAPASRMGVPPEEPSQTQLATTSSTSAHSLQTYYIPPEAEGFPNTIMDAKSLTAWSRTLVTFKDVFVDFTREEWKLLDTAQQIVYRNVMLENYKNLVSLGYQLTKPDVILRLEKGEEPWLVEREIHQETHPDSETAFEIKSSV

Sequence of Cf2-PBD-VP64 (human) (P06401 640-914): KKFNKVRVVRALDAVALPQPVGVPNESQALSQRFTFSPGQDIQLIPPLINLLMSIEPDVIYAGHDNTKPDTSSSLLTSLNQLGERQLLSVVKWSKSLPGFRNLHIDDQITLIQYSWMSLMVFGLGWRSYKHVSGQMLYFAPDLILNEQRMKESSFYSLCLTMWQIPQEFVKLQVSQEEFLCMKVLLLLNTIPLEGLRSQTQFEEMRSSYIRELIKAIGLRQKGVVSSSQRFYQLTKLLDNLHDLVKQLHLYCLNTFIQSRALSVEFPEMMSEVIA
Sequence of C7-PBD-VP64 (P06401 640-914): as above

| Substance | luciferase assay, C7-Cf2 TATA reporter, ligand-dependent change in transcription (Cf2-PBD-VP64 (human)) [fold] | luciferase assay, erbB-2 promoter activity in HeLa cells, with and without Tamoxifen (ER-VP64 (mouse)) [fold] | luciferase assay, tamoxifen-dependent activation of the erbB-2 promoter (ER-VP64 (mouse)) [fold] | luciferase assay, tamoxifen-dependent repression of the erbB-2 promoter (ER-KRAB (mouse; human)) [fold] |
| --- | --- | --- | --- | --- |
| C7-PBD-VP64 (from UniProt P06401 640-914) | 2 |  |  |  |
| E2C-ER (from UniProt P19785 282-599) |  | 3 | 5.3 | 2.9 |
